B2: HSV-1 glycoprotein D purified from HSV-1-infected BHK cells (ligand)
chain: KYALVDASLKMADPNRFRGKDLPVLDQLTDPPGVRRVYHIQAGLPDPFQPPSLPITVYYAVLERACRSVLLNAPSEAPQIVRGASEDVRKQPYNLTIAWFRMGGNCAIPITVMEYTECSYNKSLGACPIRTQPRWNYYDSFSAVSEDNLGFLMHAPAFETAGTYLRLVKINDWTEITQFILEHRAKGSCKYALPLRIPPSACLSPQAYQQGVTVDSIGMLPRFIPENQRTVAVYSLKIAGWHGPKAPYTSTLLPPELSETPNATQPELAPEDPEDSALLEDPVGTVAPQIPPNWHIPSIQDAATPYHPPATPNNMGLIAGAVGGSLLAALVICGIVYWMRRHTQKAPKRIRLPHIREDDQPSSHQPLFY
notes: also called gD; HSV gD

The target of test [1] is B2. Put plainly: ELISA, gD immobilized, detection with anti-human IgG-peroxidase. For orientation: In an ELISA, binding on a coated surface is turned into a signal by an enzyme label.
The target in test [2] is T1, BSA (UniProt P02769 25-607).
T1 construct: Unrelated control molecule
Nature of the test: ELISA on immobilized gD.

The record followed here is patent US6469155 (UNIVERSITA DEGLI STUDI DI BOLOGNA, dated 2002).

T1 sequence (P02769 25-607 limits assumed): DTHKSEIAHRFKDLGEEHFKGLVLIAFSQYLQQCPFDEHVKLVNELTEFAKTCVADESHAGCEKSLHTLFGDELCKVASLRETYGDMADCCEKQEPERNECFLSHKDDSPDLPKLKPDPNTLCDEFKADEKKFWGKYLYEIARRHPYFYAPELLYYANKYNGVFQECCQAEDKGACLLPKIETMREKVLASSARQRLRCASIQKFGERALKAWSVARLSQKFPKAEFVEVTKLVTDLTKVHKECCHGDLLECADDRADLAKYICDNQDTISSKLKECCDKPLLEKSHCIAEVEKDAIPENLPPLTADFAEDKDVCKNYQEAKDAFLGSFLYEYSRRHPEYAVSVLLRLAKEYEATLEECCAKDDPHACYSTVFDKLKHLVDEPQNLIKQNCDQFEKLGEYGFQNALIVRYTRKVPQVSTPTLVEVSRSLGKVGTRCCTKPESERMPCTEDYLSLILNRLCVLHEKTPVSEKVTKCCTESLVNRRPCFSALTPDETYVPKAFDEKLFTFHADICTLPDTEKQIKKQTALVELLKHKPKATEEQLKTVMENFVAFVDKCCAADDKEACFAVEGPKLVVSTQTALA

B1: sV(HIgR)-Fc (Fc fusion)
chain: QVVQVNDSMYGFIGTDVVLHCSFANPLPSVKITQVTWQKSTNGSKQNVAIYNPSMGVSVLAPYRERVEFLRPSFTDGTIRLSRLELEDEGVYICGFATFPTGNRESQLNLTVMA
notes: Made in COS1 cells and purified on protein A; also called V1-Fc; soluble V domain of HIgR/PRR1; not shown: IgG Fc (Fc portion of human IgG1) from the Cos Fc Link (CFL) vector
As for B1, the “reduction in the level of saturable binding relative to sVCC(HIgR)-Fc” value in test [1] is around 30%.

B2: the binding result in test [2] is reported as “no binding”.
